From the supplement of paper PMC6757056
± gives the standard deviation of the averaged measurements.

B1: library; a variant is named by its letters at N, in order (parent)
chain: GCUGUCACCGAGAAACUGUGAAGUAUAUCUUAAACCUGGGCACUUAAAAGAUAUAUGGAGUUAGUAGUGCAACCUGCUCGGUCUGAUGAGUCCNNNNNNGGACGAAACAGC

Columns and labels:
cyclic di-GMP [1] = variants of: B1; assay: FACS-Seq fitted mean relative fluorescence mCherry/BFP without ligand (log10 relative fluorescence); HEK293T; ligand: cyclic di-GMP (c-di-GMP-II aptamer); higher = higher reporter protein expression; conditions: ligand present: no
In short: (§1)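 Fluorescence is reported as a normalized fitted mean of sorted-bin read counts. Lentivirally transduced HEK293T libraries (mCherry ribozyme-switch reporter, EF1α-BFP marker) were enriched, treated with or without ligand for 48 h, and sorted into 6 mCherry/BFP bins for MiSeq sequencing of PCR-amplified genomic DNA. The normal fit was on log10(mCherry/BFP), scaled to five spiked-in control ribozymes.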

cyclic di-GMP [2] = variants of: B1; assay: normalized RNA/DNA level without ligand (relative to sTRSVctl = 100) (log10 (% of sTRSVctl)); HEK293T; ligand: cyclic di-GMP (c-di-GMP-II aptamer); higher = less ribozyme self-cleavage, higher mRNA level; conditions: reporter: mCherry (pCS4076), ligand present: no
Procedure: (§2)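 Hammerhead (sTRSV) ribozyme switch libraries with a ligand aptamer grafted on stem I and a randomized N4-6 loop II, cloned into the 3' UTR of mCherry and transiently transfected into HEK293T cells; RNA-Seq 72 h post transfection with ligand added 1 h before transfection; RNA read count / plasmid DNA read count normalized to the non-cleaving sTRSVctl (x100), log10; sequences with >100 DNA reads. FACS-Seq: lentiviral library sorted into 6 bins after 48 h ligand, log-normal fit mean of mCherry/BFP scaled to controls. Printed sequences are partial switch sequences.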

cyclic di-GMP [3] = variants of: B1; assay: FACS-Seq fitted mean relative fluorescence mCherry/BFP with ligand (log10 relative fluorescence); HEK293T; ligand: cyclic di-GMP (c-di-GMP-II aptamer); ligand concentration (+) FACS-Seq: 1 mM; higher = higher reporter protein expression; conditions: ligand present: yes
In short: as §1

cyclic di-GMP [4] = variants of: B1; assay: normalized RNA/DNA level with ligand (relative to sTRSVctl = 100) (log10 (% of sTRSVctl)); HEK293T; ligand: cyclic di-GMP (c-di-GMP-II aptamer); ligand concentration (+) RNA-Seq: 1 mM; higher = less ribozyme self-cleavage, higher mRNA level; conditions: reporter: mCherry (pCS4076), ligand present: yes
Procedure: as §2

Row | Variant | FACS-Seq fitted mean (log10) (cyclic di-GMP [1]) | normalized RNA/DNA level without ligand (log10) (cyclic di-GMP [2]) | FACS-Seq fitted mean (log10) (cyclic di-GMP [3]) | normalized RNA/DNA level with ligand (log10) (cyclic di-GMP [4])
1 | GCUAAU | -0.207 ± 0.11 | 1.56 ± 0.049 | 0.146 ± 0.04 | 1.74 ± 0.078
2 | UCGCAA | -0.351 ± 0.038 | 1.47 ± 0.019 | -0.0919 ± 0.063 | 1.69 ± 0.18
3 | ACGAAG | -0.359 ± 0.056 | 1.42 ± 0.13 | 0.0516 ± 0.11 | 1.63 ± 0.088
4 | ACGAAA | -0.618 ± 0.032 | 1.35 ± 0.1 | -0.313 ± 0.013 | 1.52 ± 0.11
5 | CCUCAG | -0.325 ± 0.018 | 1.669 ± 0.003 | -0.0311 ± 0.077 | 1.81 ± 0.14
6 | CCUCAA | 0.0135 ± 0.11 | 1.46 ± 0.1 | 0.263 ± 0.07 | 1.67 ± 0.066
7 | GCGUCG | -0.555 ± 0.037 | 1.64 ± 0.037 | -0.312 ± 0.016 | 1.77 ± 0.11
8 | CCCGUA | -0.351 ± 0.12 | 1.55 ± 0.067 | -0.0502 ± 0.012 | 1.72 ± 0.055
9 | CCCGUC | -0.648 ± 0.28 | 1.73 ± 0.061 | -0.317 ± 0.1 | 1.87 ± 0.16
10 | ACUCUU | -0.426 ± 0.095 | 1.636 ± 0.0073 | -0.112 ± 0.0059 | 1.83 ± 0.11
11 | CCGCAC | -0.121 ± 0.13 | 1.6849 ± 0.0016 | 0.131 ± 0.16 | 1.85 ± 0.11
12 | ACUCCC | -0.621 ± 0.049 | 1.77 ± 0.049 | -0.284 ± 0.087 | 1.87 ± 0.14
13 | ACCCUG | -0.354 ± 0.046 | 1.67 ± 0.022 | 0.0314 ± 0.09 | 1.83 ± 0.097
14 | ACCUGA | -0.424 ± 0.033 | 1.52 ± 0.032 | -0.159 ± 0.035 | 1.72 ± 0.1
15 | ACUCAG | -0.836 ± 0.044 | 1.61 ± 0.031 | -0.677 ± 0.16 | 1.77 ± 0.1
16 | ACUGAA | -0.493 ± 0.087 | 1.43 ± 0.09 | -0.161 ± 0.014 | 1.64 ± 0.074
17 | ACUGAU | -0.368 ± 0.075 | 1.43 ± 0.11 | -0.128 ± 0.13 | 1.62 ± 0.11
18 | UCCUCC | -0.766 ± 0.014 | 1.81 ± 0.047 | -0.515 ± 0.021 | 1.91 ± 0.17
19 | UCCUCG | 0.369 ± 0.066 | 1.797 ± 0.0034 | 0.448 ± 0.0052 | 1.91 ± 0.074
20 | UCUGGU | -0.364 ± 0.019 | 1.66 ± 0.049 | -0.0436 ± 0.031 | 1.81 ± 0.044
21 | CCUGGC | -0.646 ± 0.017 | 1.68 ± 0.034 | -0.459 ± 0.0093 | 1.82 ± 0.14
22 | ACUAUA | -0.358 ± 0.029 | 1.53 ± 0.057 | 0.067 ± 0.087 | 1.72 ± 0.12
23 | GCGCUA | -0.702 ± 0.086 | 1.65 ± 0.043 | -0.433 ± 0.079 | 1.78 ± 0.17
24 | GCGCUC | 0.151 ± 0.12 | 1.45 ± 0.13 | 0.324 ± 0.017 | 1.62 ± 0.17

Row | Variant | FACS-Seq fitted mean (log10) (cyclic di-GMP [1]) | normalized RNA/DNA level without ligand (log10) (cyclic di-GMP [2]) | FACS-Seq fitted mean (log10) (cyclic di-GMP [3]) | normalized RNA/DNA level with ligand (log10) (cyclic di-GMP [4])
25 | ACCGAA | -0.328 ± 0.091 | 1.44 ± 0.08 | -0.063 ± 0.13 | 1.62 ± 0.12
26 | ACCUAU | -0.223 ± 0.079 | 1.59 ± 0.055 | -0.113 ± 0.043 | 1.79 ± 0.11
27 | ACCUAA | -0.281 ± 0.029 | 1.57 ± 0.053 | 0.102 ± 0.075 | 1.76 ± 0.056
28 | ACUACA | -0.0979 ± 0.082 | 1.55 ± 0.03 | 0.212 ± 0.16 | 1.73 ± 0.11
29 | UCUAAA | -0.692 ± 0.041 | 1.495 ± 0.0055 | -0.441 ± 0.055 | 1.74 ± 0.15
30 | UCUAAU | -0.491 ± 0.013 | 1.6 ± 0.017 | -0.327 ± 0.062 | 1.78 ± 0.1
31 | CCGGAC | -0.253 ± 0.11 | 1.62 ± 0.034 | -0.0326 ± 0.0056 | 1.75 ± 0.086
32 | CCGGAA | -0.512 ± 0.023 | 1.28 ± 0.09 | -0.209 ± 0.03 | 1.47 ± 0.12
33 | CCGGAU | -0.339 ± 0.015 | 1.55 ± 0.074 | -0.0202 ± 0.13 | 1.76 ± 0.1
34 | UCGAUU | -0.335 ± 0.14 | 1.55 ± 0.074 | 0.0883 ± 0.079 | 1.74 ± 0.17
35 | UCGAUA | -0.515 ± 0.044 | 1.35 ± 0.17 | -0.119 ± 0.11 | 1.51 ± 0.084
36 | GCCGCU | -0.109 ± 0.1 | 1.72 ± 0.015 | 0.0767 ± 0.02 | 1.92 ± 0.09
37 | CCGCCA | -0.184 ± 0.045 | 1.645 ± 0.0073 | 0.127 ± 0.058 | 1.85 ± 0.14
38 | CCCUAG | -0.7711 ± 0.0036 | 1.65 ± 0.031 | -0.624 ± 0.025 | 1.84 ± 0.13
39 | GCUCUA | -0.242 ± 0.011 | 1.64 ± 0.039 | 0.0781 ± 0.02 | 1.8 ± 0.025
40 | GCUCUU | -0.277 ± 0.12 | 1.66 ± 0.07 | -0.215 ± 0.015 | 1.82 ± 0.16
41 | CCCCUU | -0.25 ± 0.04 | 1.65 ± 0.019 | 0.125 ± 0.14 | 1.84 ± 0.12
42 | UCGAGC | -0.085 ± 0.098 | 1.736 ± 0.017 | 0.204 ± 0.013 | 1.84 ± 0.1
43 | UCGAGA | -0.546 ± 0.018 | 1.47 ± 0.0053 | -0.217 ± 0.11 | 1.71 ± 0.16
44 | UCGAGU | -0.395 ± 0.033 | 1.47 ± 0.066 | -0.0571 ± 0.032 | 1.73 ± 0.11
45 | ACUAAG | -0.34 ± 0.089 | 1.5 ± 0.12 | -0.165 ± 0.11 | 1.71 ± 0.026
46 | ACUAAU | -0.784 ± 0.024 | 1.47 ± 0.052 | -0.433 ± 0.047 | 1.68 ± 0.11
47 | ACUAAA | -0.416 ± 0.14 | 1.41 ± 0.045 | -0.0324 ± 0.021 | 1.62 ± 0.088
48 | ACGCUC | -0.914 ± 0.014 | 1.67 ± 0.02 | -0.852 ± 0.057 | 1.82 ± 0.16

Row | Variant | FACS-Seq fitted mean (log10) (cyclic di-GMP [1]) | normalized RNA/DNA level without ligand (log10) (cyclic di-GMP [2]) | FACS-Seq fitted mean (log10) (cyclic di-GMP [3]) | normalized RNA/DNA level with ligand (log10) (cyclic di-GMP [4])
49 | GCGAUA | -0.474 ± 0.0058 | 1.44 ± 0.11 | -0.154 ± 0.057 | 1.61 ± 0.12
50 | GCGAUC | -0.51 ± 0.012 | 1.16 ± 0.039 | -0.206 ± 0.014 | 1.34 ± 0.15
51 | GCUGAA | -0.497 ± 0.029 | 1.45 ± 0.035 | -0.115 ± 0.0012 | 1.65 ± 0.097
52 | ACUGCU | -0.0841 ± 0.15 | 1.616 ± 0.01 | 0.249 ± 0.013 | 1.8 ± 0.14
53 | CCUACC | -0.57 ± 0.25 | 1.757 ± 0.0078 | -0.577 ± 0.048 | 1.85 ± 0.053
54 | UCGGCA | -0.241 ± 0.26 | 1.65 ± 0.02 | -0.0817 ± 0.0018 | 1.81 ± 0.12
55 | UCGGCU | -0.103 ± 0.0013 | 1.77 ± 0.036 | 0.114 ± 0.004 | 1.88 ± 0.089
56 | ACGGAA | -0.62 ± 0.042 | 1.31 ± 0.097 | -0.325 ± 0.031 | 1.47 ± 0.13
57 | ACGGAG | -0.541 ± 0.036 | 1.46 ± 0.12 | -0.151 ± 0.062 | 1.61 ± 0.15
58 | ACGGAU | -0.662 ± 0.045 | 1.29 ± 0.16 | -0.374 ± 0.0087 | 1.4 ± 0.15
59 | CCGAAG | -0.589 ± 0.031 | 1.31 ± 0.081 | -0.24 ± 0.0033 | 1.51 ± 0.12
60 | CCGAAA | -0.628 ± 0.032 | 1.31 ± 0.12 | -0.282 ± 0.0032 | 1.53 ± 0.1
61 | UCGCGA | -0.247 ± 0.071 | 1.668 ± 0.0022 | 0.0917 ± 0.061 | 1.8 ± 0.1
62 | ACUGGG | -0.467 ± 0.024 | 1.58 ± 0.07 | -0.104 ± 0.015 | 1.69 ± 0.11
63 | ACUGGU | -0.466 ± 0.02 | 1.52 ± 0.024 | -0.166 ± 0.029 | 1.76 ± 0.079
64 | ACUGGA | -0.72 ± 0.0076 | 1.39 ± 0.091 | -0.5113 ± 0.0047 | 1.59 ± 0.087
65 | UCGGAG | -0.311 ± 0.011 | 1.54 ± 0.088 | 0.0865 ± 0.03 | 1.72 ± 0.08
66 | UCGGAA | -0.484 ± 0.069 | 1.34 ± 0.14 | -0.286 ± 0.048 | 1.49 ± 0.11
67 | UCGGAU | -0.57 ± 0.024 | 1.43 ± 0.097 | -0.239 ± 0.0084 | 1.68 ± 0.06
68 | GCGACG | -0.315 ± 0.099 | 1.55 ± 0.096 | -0.216 ± 0.13 | 1.73 ± 0.076
69 | ACGUUU | -0.522 ± 0.028 | 1.32 ± 0.16 | -0.336 ± 0.035 | 1.52 ± 0.078
70 | UCUGCU | -0.406 ± 0.013 | 1.786 ± 0.0052 | -0.176 ± 0.02 | 1.88 ± 0.081
71 | CCCGGU | -0.55 ± 0.093 | 1.724 ± 0.003 | -0.114 ± 0.093 | 1.87 ± 0.11
